± gives the uncertainty stated by the source.
B1: Activity-dependent neuroprotector homeobox protein, residues 770 to 810; numbered along this chain, Q9H2P0 (parent)
chain: FLTKYFNKQPYPTRREIEKLAASLWLWKSDIASHFSNKRKK

Variants of: B1
Assay: abundance fitness (aPCA) (normalised: wild type 0, dead -1); higher = more abundant; growth selection in yeast, the domain comes from the species named
Conditions: Homo sapiens

Abundance fitness: each site, then its substitutions
K28: T 0.18 ± 0.048
L24: F -0.197 ± 0.13 | C -0.122 ± 0.095 | R -0.339 ± 0.062 | V 0.123 ± 0.07 | S -0.483 ± 0.13
R15: W -0.326 ± 0.12 | S -0.018 ± 0.053 | V -0.149 ± 0.13 | T -0.005 ± 0.066 | N -0.173 ± 0.26 | M -0.204 ± 0.069 | C -0.182 ± 0.089
L26: H 0.253 ± 0.074 | V 0.037 ± 0.056 | A -0.116 ± 0.068 | R 0.198 ± 0.049 | T 0.022 ± 0.066 | Q 0.122 ± 0.085 | C -0.014 ± 0.068 | M 0.115 ± 0.084 | E 0.127 ± 0.061 | S 0.033 ± 0.051 | F 0.069 ± 0.088
I17: R -0.294 ± 0.056 | F -0.205 ± 0.079 | E -0.61 ± 0.11 | P -0.296 ± 0.066 | D -0.604 ± 0.2 | M 0.239 ± 0.087 | A -0.127 ± 0.059 | S -0.455 ± 0.061 | K -0.404 ± 0.09 | V -0.025 ± 0.053 | C -0.024 ± 0.072 | H -0.237 ± 0.06
F6: L -0.157 ± 0.045 | D -0.837 ± 0.085 | S -0.76 ± 0.068 | P -0.942 ± 0.071 | C -0.223 ± 0.054 | R -0.163 ± 0.044 | T -0.328 ± 0.056 | H -0.794 ± 0.089 | A -0.235 ± 0.05 | Y -0.295 ± 0.07
K38: L -0.197 ± 0.054 | Q -0.216 ± 0.11 | N -0.298 ± 0.079 | H -0.112 ± 0.065 | G -0.09 ± 0.048 | Y -0.433 ± 0.1 | V -0.119 ± 0.047 | C -0.193 ± 0.1 | A -0.167 ± 0.05 | E -0.327 ± 0.085
Y11: W 0.003 ± 0.095 | P -0.124 ± 0.061 | V 0.031 ± 0.053 | C 0.086 ± 0.3 | N 0.124 ± 0.059 | L -0.006 ± 0.052 | S 0.275 ± 0.047 | G 0.293 ± 0.051 | E 0.02 ± 0.071
W27: M -0.031 ± 0.099 | K 0.067 ± 0.06 | E -0.74 ± 0.33
A22: W -0.193 ± 0.11 | F -0.594 ± 0.077 | Q 0.045 ± 0.065 | G -0.058 ± 0.062 | Y -0.303 ± 0.063 | C -0.229 ± 0.11 | E -0.162 ± 0.11 | R -0.027 ± 0.052 | S -0.117 ± 0.059 | T -0.087 ± 0.087
K41: H -0.214 ± 0.063 | W 0.259 ± 0.24 | L -0.4 ± 0.097 | G -0.135 ± 0.071 | M 0.082 ± 0.12 | Q 0.153 ± 0.088
K40: M -0.069 ± 0.14 | V -0.461 ± 0.14 | C -0.097 ± 0.15 | R -0.156 ± 0.06 | T 0.009 ± 0.14 | A -0.013 ± 0.096 | E -0.278 ± 0.14 | P -0.28 ± 0.07
L2: S -0.88 ± 0.091 | C -0.571 ± 0.077 | T -0.661 ± 0.091 | P -0.532 ± 0.24 | V -0.369 ± 0.05 | Y -0.248 ± 0.12 | A -0.753 ± 0.076 | K -0.622 ± 0.3 | G -0.812 ± 0.066
N37: H -0.072 ± 0.071 | V -0.091 ± 0.053 | W 0.023 ± 0.067 | S -0.019 ± 0.049 | K 0.131 ± 0.11 | L 0.061 ± 0.05
F35: Y -0.235 ± 0.065 | N -0.205 ± 0.067 | Q -0.238 ± 0.057 | L -0.023 ± 0.044 | K -0.211 ± 0.08 | C -0.347 ± 0.06 | E -0.068 ± 0.066 | D -0.157 ± 0.072 | H -0.237 ± 0.052 | T -0.229 ± 0.05 | P -0.231 ± 0.053
F1: S -0.09 ± 0.25 | K -0.36 ± 0.33 | R -1.12 ± 0.33 | M -0.176 ± 0.15 | N -0.142 ± 0.32 | D -0.805 ± 0.27 | T -0.158 ± 0.2 | P -0.375 ± 0.29 | L -1.24 ± 0.22 | G -0.574 ± 0.2
D30: H -0.124 ± 0.092 | P 0.056 ± 0.064 | E -0.124 ± 0.1 | W -0.01 ± 0.077 | L -0.376 ± 0.069 | F -0.257 ± 0.11
K8: D -0.325 ± 0.076 | I -1.43 ± 0.19 | V -1.15 ± 0.12 | P -1.11 ± 0.13 | F -1.13 ± 0.18 | Y -0.554 ± 0.1 | E -0.634 ± 0.14 | C -1.11 ± 0.24
I31: W -0.129 ± 0.086 | G -0.129 ± 0.072 | K -0.276 ± 0.084 | V 0.16 ± 0.056 | N -0.153 ± 0.072 | E -0.23 ± 0.091 | P -0.098 ± 0.064 | R -0.205 ± 0.053
R14: V -0.388 ± 0.13 | A -0.595 ± 0.22 | W -0.262 ± 0.12 | L -0.14 ± 0.081 | M -0.028 ± 0.12 | Y -0.13 ± 0.25 | K -0.048 ± 0.27 | D -0.826 ± 0.28
T13: I 0.101 ± 0.11 | H -0.135 ± 0.079 | D -0.26 ± 0.11 | M 0.28 ± 0.15 | Y 0.083 ± 0.18 | A 0.016 ± 0.069 | F 0.044 ± 0.29 | L 0.132 ± 0.077 | V 0.088 ± 0.069

Reference: the Human Domainome abundance scans (Beltran et al. 2025)
